The results in this text go back to patent publication US20140087995A1 (published 2014).

Numbered stars: 1 amine (or outer) side, 2 acyl side, 3 side chain; on linkers, the order of the positions; unused ones are H or OH. Bridge positions count the residues as written; N and C are the ends. Side chains are listed from the residue outwards. Ends that are not written are not given here. * marks the point of attachment. C20 diacid = O=C(O)CCCCCCCCCCCCCCCCCCC(=O)*; γGlu = O=C(O)[C@H](CCC(=O)[*:2])N[*:1]

Assay [1] deals with T1, human amylin receptor (amylin 3(a) receptor: human calcitonin receptor co-expressed with RAMP-3) (human, UniProt P30988 25-474; O60896 24-148, limits assumed).
T1 construct: whole, on cells; functional assay (Assay II a) used the whole cells; also called hAmylin-R; hAmylinR
T1 sequence (looked up) 1: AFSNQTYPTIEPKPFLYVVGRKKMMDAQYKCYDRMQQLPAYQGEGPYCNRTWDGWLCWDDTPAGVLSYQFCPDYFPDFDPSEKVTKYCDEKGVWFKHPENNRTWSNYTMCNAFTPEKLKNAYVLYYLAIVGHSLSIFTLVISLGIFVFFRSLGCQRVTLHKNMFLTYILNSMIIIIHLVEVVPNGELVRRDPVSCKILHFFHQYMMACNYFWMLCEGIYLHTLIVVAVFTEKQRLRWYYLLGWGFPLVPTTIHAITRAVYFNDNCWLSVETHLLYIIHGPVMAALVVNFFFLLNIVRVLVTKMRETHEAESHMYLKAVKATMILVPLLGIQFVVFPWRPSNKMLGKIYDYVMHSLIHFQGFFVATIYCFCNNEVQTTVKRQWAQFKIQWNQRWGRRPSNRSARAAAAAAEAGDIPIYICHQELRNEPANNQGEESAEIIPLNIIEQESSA
T1 sequence (looked up) 2: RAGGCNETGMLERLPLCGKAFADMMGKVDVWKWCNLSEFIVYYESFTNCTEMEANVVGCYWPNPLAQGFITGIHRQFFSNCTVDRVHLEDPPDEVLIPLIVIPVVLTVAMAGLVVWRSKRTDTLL
Briefly: SPA competition against 125I-rat amylin, membranes of Amylin 3(a)/CRE-luc BHK cells (Assay V). The protocol:
The binding assay was performed using scintillation proximity assay (SPA) beads (RPNQ0001) from PerkinElmer and cell membranes from the Amylin 3(a)/CRE-luc cells (as described in Assay (II)) were used. Membranes were prepared in the following way; the cells were rinsed with PBS and incubated with Versene for approximately 5 min before harvesting. The cells were flushed with PBS and the cell-suspension was centrifuged for 5 min at 1000 rpm. Cells were homogenized (ultrathurrax) in a buffer containing 20 mM Na-HEPES and 10 mM EDTA (pH 7.4) and centrifuged at 20.000 rpm for 15 min. The resulting pellet was resuspended, homogenized and centrifuged (20.000 rpm, 15 min) in a buffer containing 20 mM Na-HEPES and 0.1 mM EDTA (pH 7.4, buffer 2). The resulting pellet was resuspended in buffer 2 and protein concentration was measured (BCA protein Assay, Pierce). The homogenate was kept cold during the whole procedure. The membranes were kept at −80° C. until use. The assay was performed in a 384 well Optiplate (PerkinElmer) in a total volume of 40 ul. Membranes were mixed with SPA beads. Final concentration of membranes 35 ng/μL final and SPA beads was 0.05 mg/well. […] Samples were analyzed on TopCounter™ (Packard). The IC₅₀ was calculated using (one site binding competition analysis) GraphPad Prism5 as a measure of receptor affinity.

The target in assay [2] is T2, human calcitonin receptor (human, UniProt P30988 25-474).
T2 sequence (looked up): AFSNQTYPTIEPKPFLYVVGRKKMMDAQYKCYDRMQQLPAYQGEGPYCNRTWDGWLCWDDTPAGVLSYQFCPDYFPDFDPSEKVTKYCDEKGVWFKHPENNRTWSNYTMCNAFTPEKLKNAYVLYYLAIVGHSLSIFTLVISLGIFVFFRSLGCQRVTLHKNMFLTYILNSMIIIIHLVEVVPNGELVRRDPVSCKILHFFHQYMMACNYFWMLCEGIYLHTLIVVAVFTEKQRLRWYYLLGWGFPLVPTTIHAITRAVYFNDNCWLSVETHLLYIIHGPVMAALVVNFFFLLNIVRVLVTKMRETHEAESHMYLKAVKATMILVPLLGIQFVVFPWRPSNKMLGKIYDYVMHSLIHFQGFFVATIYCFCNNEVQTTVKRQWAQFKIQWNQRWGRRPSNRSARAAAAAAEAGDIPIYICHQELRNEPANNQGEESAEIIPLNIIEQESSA
Briefly: cell-based or functional assay.

Assay [3] deals with T1, human amylin receptor (amylin 3(a) …). Briefly: cell-based or functional assay.
In assay [4] the target is T3, human amylin receptor (amylin 3(a) receptor: human calcitonin receptor with RAMP-3) (human, UniProt P30988 25-474; O60896 24-148, limits assumed).
T3 construct: whole, on cells; Whole cells in the luciferase assay (Assay II a); also called hAmylin-R; hAmylinR
T3 sequence (looked up) 1: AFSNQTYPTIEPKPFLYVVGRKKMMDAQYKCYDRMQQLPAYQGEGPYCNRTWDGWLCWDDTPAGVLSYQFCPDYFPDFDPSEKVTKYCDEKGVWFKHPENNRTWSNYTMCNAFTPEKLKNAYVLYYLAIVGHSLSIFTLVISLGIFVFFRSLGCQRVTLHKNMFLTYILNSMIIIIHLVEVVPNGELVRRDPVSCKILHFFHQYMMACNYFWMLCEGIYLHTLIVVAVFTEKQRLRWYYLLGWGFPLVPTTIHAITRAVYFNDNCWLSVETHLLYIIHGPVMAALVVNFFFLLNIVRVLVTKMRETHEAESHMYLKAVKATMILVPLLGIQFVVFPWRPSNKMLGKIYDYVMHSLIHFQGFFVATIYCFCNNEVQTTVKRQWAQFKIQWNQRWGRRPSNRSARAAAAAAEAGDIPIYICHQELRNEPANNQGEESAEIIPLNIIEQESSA
T3 sequence (looked up) 2: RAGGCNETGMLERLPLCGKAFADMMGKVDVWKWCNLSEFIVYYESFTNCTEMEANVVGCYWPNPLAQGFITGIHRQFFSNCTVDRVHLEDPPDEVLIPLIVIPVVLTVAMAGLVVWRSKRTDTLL
Briefly: SPA competition binding on membranes of BHK cells with human calcitonin receptor + RAMP-3; displacement of 125I-rat amylin (Assay V). The procedure, abridged: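 One-site competition analysis of SPA counts yielded IC₅₀ as a measure of affinity. Membranes were at 35 ng/μL final; incubation was 120 min at 25° C, pH 7.4.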
A general note: Displacement assays read how much labelled ligand stays bound in the presence of the test substance.

The target in assay [5] is T3, human amylin receptor (amylin 3(a) …). Briefly: cell-based or functional assay.
Assay [6] has as its target T4, human calcitonin receptor (human, UniProt P30988 25-474).
T4 sequence (looked up): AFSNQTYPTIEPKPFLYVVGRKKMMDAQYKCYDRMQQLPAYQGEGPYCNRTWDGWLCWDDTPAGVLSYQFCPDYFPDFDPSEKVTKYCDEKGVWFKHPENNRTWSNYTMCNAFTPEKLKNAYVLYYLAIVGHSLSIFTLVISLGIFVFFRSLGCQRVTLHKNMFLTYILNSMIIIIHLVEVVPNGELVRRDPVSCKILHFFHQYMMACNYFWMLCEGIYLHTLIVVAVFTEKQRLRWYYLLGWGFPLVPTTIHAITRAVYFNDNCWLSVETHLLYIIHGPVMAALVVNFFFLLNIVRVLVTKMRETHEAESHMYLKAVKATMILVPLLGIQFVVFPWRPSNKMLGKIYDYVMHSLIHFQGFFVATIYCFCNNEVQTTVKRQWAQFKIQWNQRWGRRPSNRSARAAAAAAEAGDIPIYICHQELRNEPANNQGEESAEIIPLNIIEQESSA
Briefly: cell-based or functional assay. This is another data set of the same source.

B1: N^ε1-[(4S)-4-carboxy-4-(19-carboxynonadecanoylamino)butanoyl]-[His14,Arg17,Pro21,Pro27,Pro34]-h-amylin (peptide)
peptide: K([γGlu-C20 diacid])CNTATCATQRLAHFLRHSSPNFGAIPSSTNVGPNTY-NH2
modifications: disulfide 2-7; N-terminus assumed
SMILES: CC[C@H](C)[C@H](NC(=O)[C@H](C)NC(=O)CNC(=O)[C@H](Cc1ccccc1)NC(=O)[C@H](CC(N)=O)NC(=O)[C@@H]1CCCN1C(=O)[C@H](CO)NC(=O)[C@H](CO)NC(=O)[C@H](Cc1c[nH]cn1)NC(=O)[C@H](CCCNC(=N)N)NC(=O)[C@H](CC(C)C)NC(=O)[C@H](Cc1ccccc1)NC(=O)[C@H](Cc1c[nH]cn1)NC(=O)[C@H](C)NC(=O)[C@H](CC(C)C)NC(=O)[C@H](CCCNC(=N)N)NC(=O)[C@H](CCC(N)=O)NC(=O)[C@@H](NC(=O)[C@H](C)NC(=O)[C@@H]1CSSC[C@H](NC(=O)[C@@H](N)CCCCNC(=O)CC[C@H](NC(=O)CCCCCCCCCCCCCCCCCCC(=O)O)C(=O)O)C(=O)N[C@@H](CC(N)=O)C(=O)N[C@@H]([C@@H](C)O)C(=O)N[C@@H](C)C(=O)N[C@@H]([C@@H](C)O)C(=O)N1)[C@@H](C)O)C(=O)N1CCC[C@H]1C(=O)N[C@@H](CO)C(=O)N[C@@H](CO)C(=O)N[C@H](C(=O)N[C@@H](CC(N)=O)C(=O)N[C@H](C(=O)NCC(=O)N1CCC[C@H]1C(=O)N[C@@H](CC(N)=O)C(=O)N[C@H](C(=O)N[C@@H](Cc1ccc(O)cc1)C(N)=O)[C@@H](C)O)C(C)C)[C@@H](C)O
notes: also called compound 67
Take B1: in assay [1], the 50% inhibitory concentration (IC50) (usually the concentration that gives 50% inhibition) is 0.09 nM. Moreover, in assay [2], the “Ratio hCT/hAmylin funct. (hCTR EC50 against hAmylin-R EC50)” value is 5.2 and the “hCTR funct. EC50” value turned out to be 0.354 nM. Also, the “hAmylin-R funct. EC50” value in assay [3] worked out at 0.069 nM.

B2: N^α1-[(4S)-4-carboxy-4-(19-carboxynonadecanoylamino)butanoyl]-[Glu14,Arg17,Pro21,Pro27,Arg35]-h-amylin (peptide)
peptide: {C20 diacid-γGlu}-KCNTATCATQRLAEFLRHSSPNFGAIPSSTNVGSRTY-NH2
modifications: disulfide 2-7
SMILES: CC[C@H](C)[C@H](NC(=O)[C@H](C)NC(=O)CNC(=O)[C@H](Cc1ccccc1)NC(=O)[C@H](CC(N)=O)NC(=O)[C@@H]1CCCN1C(=O)[C@H](CO)NC(=O)[C@H](CO)NC(=O)[C@H](Cc1c[nH]cn1)NC(=O)[C@H](CCCNC(=N)N)NC(=O)[C@H](CC(C)C)NC(=O)[C@H](Cc1ccccc1)NC(=O)[C@H](CCC(=O)O)NC(=O)[C@H](C)NC(=O)[C@H](CC(C)C)NC(=O)[C@H](CCCNC(=N)N)NC(=O)[C@H](CCC(N)=O)NC(=O)[C@@H](NC(=O)[C@H](C)NC(=O)[C@@H]1CSSC[C@H](NC(=O)[C@H](CCCCN)NC(=O)CC[C@H](NC(=O)CCCCCCCCCCCCCCCCCCC(=O)O)C(=O)O)C(=O)N[C@@H](CC(N)=O)C(=O)N[C@@H]([C@@H](C)O)C(=O)N[C@@H](C)C(=O)N[C@@H]([C@@H](C)O)C(=O)N1)[C@@H](C)O)C(=O)N1CCC[C@H]1C(=O)N[C@@H](CO)C(=O)N[C@@H](CO)C(=O)N[C@H](C(=O)N[C@@H](CC(N)=O)C(=O)N[C@H](C(=O)NCC(=O)N[C@@H](CO)C(=O)N[C@@H](CCCNC(=N)N)C(=O)N[C@H](C(=O)N[C@@H](Cc1ccc(O)cc1)C(N)=O)[C@@H](C)O)C(C)C)[C@@H](C)O
notes: also called compound 16
Consider B2, for which the 50% inhibitory concentration (IC50) in assay [4] came out at 0.894 nM. For the same molecule, the “hAmylin-R funct. EC50 (pM)” value in assay [5] stood at 363 pM. In assay [6], the “Ratio hCT/hAmylin funct.” value was found to be 6.1 ratio and the “hCTR funct. EC50 (pM)” value amounted to 2220 pM.
